Measurements taken from article PMC9300613.

Key:
[1] = molecular target: bovine brain αβ-tubulin (taxol-stabilised microtubules, dolastatin-induced rings or DARPin-capped free dimer for biochemical assays) (bovine) (UniProt Q6B856)
[2] = molecular target: bovine brain αβ-tubulin (taxol-stabilised microtubules, dolastatin-induced rings or DARPin-capped free dimer for biochemical assays) (bovine) (UniProt Q6B856); assay: co-sedimentation; 1 μM kinesin with 0-10 μM taxol-stabilised microtubules, BRB80 + 100 mM KCl, 2 mM AMP-PNP, 20 μM taxol, 20 min at 25 °C; pellet and supernatant by SDS-PAGE; Kd from a quadratic fit

HsKHC-MDN_(L2-CaKip3) (HsKHC-MDN with loop-2 IASK, I41-K44, replaced by CaKip3 loop-2 F116-H144) (from UniProt P33176;A0A1D8PKA4) (domain or fragment)
microtubule-gliding speed of HsKHC-MDN (L2-CaKip3) relative to HsKHC-MDN (taxol-stabilised microtubules) [1]: 2 fold
microtubule-stimulated ATP turnover at steady state, relative to HsKHC-MDN [1]: 2 fold
fold greater affinity than HsKHC-MDN [2]: 7 fold
